Experimental data from article doi:10.1101/2020.09.01.277863.

Target: HalM2, class II lanthipeptide synthetase (wild type) (Bacillus halodurans)
Assay: native MS

Kd: 2400 nM
stoichiometry N: 1
Substance: HalA2 precursor peptide (full-length)
